Measurements published in US20080248458A1 (UNIVERSITY OF NORTH CAROLINA AT CHAPEL HILL, published 2008).

T1: Bmi-1, P25916
T1 chain: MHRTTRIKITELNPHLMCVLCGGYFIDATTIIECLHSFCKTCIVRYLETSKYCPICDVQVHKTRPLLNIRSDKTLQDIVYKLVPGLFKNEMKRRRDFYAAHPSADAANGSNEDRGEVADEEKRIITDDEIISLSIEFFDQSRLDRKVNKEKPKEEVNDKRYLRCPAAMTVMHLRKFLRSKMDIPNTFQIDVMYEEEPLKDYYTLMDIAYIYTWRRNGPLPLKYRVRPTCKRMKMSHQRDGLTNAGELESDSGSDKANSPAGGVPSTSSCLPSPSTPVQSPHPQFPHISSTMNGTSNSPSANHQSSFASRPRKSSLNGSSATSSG

T2: FLAG®-Ring1B (mouse, UniProt Q9CQJ4 1-336)
T2 construct: also called F-Ring1B
T2 sequence: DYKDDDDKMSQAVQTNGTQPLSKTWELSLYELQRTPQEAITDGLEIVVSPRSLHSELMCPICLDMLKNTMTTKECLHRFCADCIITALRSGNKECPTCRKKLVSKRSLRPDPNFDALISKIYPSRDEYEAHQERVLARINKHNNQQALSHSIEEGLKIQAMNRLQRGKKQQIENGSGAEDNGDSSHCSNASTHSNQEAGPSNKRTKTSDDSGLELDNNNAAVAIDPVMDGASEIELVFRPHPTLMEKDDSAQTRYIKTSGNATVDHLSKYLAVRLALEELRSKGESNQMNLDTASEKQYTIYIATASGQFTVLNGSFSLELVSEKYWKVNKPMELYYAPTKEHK

T3: Ring1A (mouse, UniProt O35730 1-406)
T3 construct: mature; Untagged protein: 35S-labelled in vitro translation product in the GST pull-down; baculovirus-expressed in Sf9 cells in the co-purifications; also called Ring1/Ring1A
T3 sequence (looked up): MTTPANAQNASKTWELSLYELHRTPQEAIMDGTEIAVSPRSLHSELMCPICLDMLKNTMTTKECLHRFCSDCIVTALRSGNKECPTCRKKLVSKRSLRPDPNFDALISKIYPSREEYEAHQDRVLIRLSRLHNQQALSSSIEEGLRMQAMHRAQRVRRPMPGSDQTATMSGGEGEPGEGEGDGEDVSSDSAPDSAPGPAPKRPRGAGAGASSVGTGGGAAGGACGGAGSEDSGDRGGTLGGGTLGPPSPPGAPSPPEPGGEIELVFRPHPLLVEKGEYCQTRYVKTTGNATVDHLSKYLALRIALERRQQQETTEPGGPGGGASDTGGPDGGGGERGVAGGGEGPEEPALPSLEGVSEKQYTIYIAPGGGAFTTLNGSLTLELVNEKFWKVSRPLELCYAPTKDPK

T4: GST-Ring1A (mouse, UniProt O35730 1-406)
T4 construct: mature; Full-length cDNA cloned into pGEX-KG; also called GST fusion of Ring1A; not shown: glutathione S-transferase (GST) encoded by the pGEX-KG vector
T4 sequence (looked up): T3 sequence (looked up)

B1: FLAG®-Ring1B (protein)
chain: T2 sequence
B2: Bmi-1 (other, mouse, UniProt P25916 1-324, looked up)
chain: T1 chain
notes: mature; Untagged protein: 35S-labelled in vitro translation product in the GST pull-down; baculovirus-expressed in Sf9 cells in the two-component complex with FLAG-Ring1B
B3: GST-Ring1B (other, mouse, UniProt Q9CQJ4 2-336, looked up)
chain: SQAVQTNGTQPLSKTWELSLYELQRTPQEAITDGLEIVVSPRSLHSELMCPICLDMLKNTMTTKECLHRFCADCIITALRSGNKECPTCRKKLVSKRSLRPDPNFDALISKIYPSRDEYEAHQERVLARINKHNNQQALSHSIEEGLKIQAMNRLQRGKKQQIENGSGAEDNGDSSHCSNASTHSNQEAGPSNKRTKTSDDSGLELDNNNAAVAIDPVMDGASEIELVFRPHPTLMEKDDSAQTRYIKTSGNATVDHLSKYLAVRLALEELRSKGESNQMNLDTASEKQYTIYIATASGQFTVLNGSFSLELVSEKYWKVNKPMELYYAPTKEHK
notes: mature; Full-length cDNA cloned into pGEX-KG; also called GST fusion of Ring1B; not shown: glutathione S-transferase (GST) encoded by the pGEX-KG vector
B4: Ring1B (enzyme, mouse, UniProt Q9CQJ4 2-336, looked up)
chain: B3 chain
notes: mature; Untagged protein: 35S-labelled in vitro translation product (pCITE, full-length cDNA) in the GST pull-down; baculovirus-expressed in Sf9 cells in the co-purifications; also called Ring2; Ring2/Ring1B

Tests used:
Bmi-1, P25916 = target: T1, Bmi-1, P25916
FLAG®-Ring1B = target: T2, FLAG®-Ring1B; test: co-expression in Sf9 cells, anti-FLAG purification, silver stain (FIG. 7A)
Protocol: To purify the recombinant PRC1 complex and sub-complexes, different baculoviruses were used to co-infect SF9 cells. After two days of infection, cells were collected and resuspended in F lysis buffer [20 mM Tris (pH 7.9), 500 mM NaCl, 4 mM MgCl₂, 0.4 mM EDTA, 2 mM DTT, 20% glycerol, 0.1% NP40] with proteinase inhibitors. Then cells were homogenized with pestle A three times (10 strokes each) in a period of 30 minutes. The supernatant was recovered by centrifuging at 11,000 rpm for 10 minutes. The supernatant was adjusted to 300 mM NaCl by adding Dilution buffer [20 mM Tris (pH 7.9), 10% glycerol], then incubated with the M2 α-FLAG® agarose (Sigma, St. Louis, Mo.) equilibrated with F lysis buffer for 4 hours at 4° C. After washing with F washing buffer [20 mM Tris (pH 7.9), 150 mM NaCl, 2 mM MgCl₂, 0.2 mM EDTA, 1 mM DTT, 15% glycerol, 0.01% NP40] until no protein came out, bound proteins were eluted with 0.2 mg/ml FLAG® peptide ([…]; SEQ ID NO:5) in F washing buffer for 20 minutes each time at room temperature. The eluted complexes were further purified through a gel-filtration SEPHADEX 200 or SUPEROSE 6 column. […]

Ring1B = target: B4; test: purification of two-component complexes from infected insect cells (FIG. 13D)
Ring1A = target: T3, Ring1A; test: GST pull-down with 35S-labelled in vitro translated protein (FIG. 5A)
Protocol: (§1) Full-length cDNAs for Ring1B, Ring1A, Bmi-1, Pc3 and Ph2 were inserted into pCITE vector for in vitro translation using the rabbit reticulocyte lysate kit according to the manufacturer's instructions (PROMEGA, Madison, Wis.). Full-length cDNAs for Ring1B, Ring1A, Bmi-1, Pc3 and Ph2 were also cloned into pGEX-KG vector for the production of GST-fusion proteins. About 3 μg of GST or GST fusion proteins were bound to 10 μL of glutathione-immobilized agarose beads (Sigma) and incubated with in vitro-translated products in 500 μL buffer A (50 mM Tris-HCl [pH 7.9], 0.5 mM EDTA, 1 mM dithiothreitol, 0.2 mM phenylmethylsulfonyl fluoride, 10% glycerol) containing 150 mM KCl and 0.05% NP-40. After incubation at 4° C. for 2 hours, the beads were washed three times with buffer A containing 300 mM KCl and 0.05% NP-40 and then washed once in buffer A containing 50 mM KCl before being subjected to SDS-PAGE and autoradiogram.
(§2) To address the effect of other subunits on Ring1B enzymatic activity, an attempt was made to reconstitute Ring1B-containing subcomplexes. Toward this end, the precise spatial relationship among components of the complex were first defined using GST full-down assays. Individual components were expressed as GST fusion proteins and equal amounts of the fusion proteins, as well as GST alone (FIG. 5A, last panel), were immobilized onto beads and incubated with ³⁵S-labeled proteins. […]

GST-Ring1A = target: T4, GST-Ring1A; test: as above
Protocol: as §1, §2

B1
E3 ligase activity (ubiquitylation of nucleosomal substrates) (Bmi-1, P25916): stimulated its E3 ligase activity

B2
binding result (FLAG®-Ring1B): binds
binding result (Ring1B): binds

B3
binding result (Ring1A): no binding

B4
binding result (GST-Ring1A): no binding
